Laboratory results taken from patent US12077763B2, “RNA-based control of powdery mildew” (Greenlight Biosciences, Inc., priority 2021, dated 2024).

Test system: E. necator
Assay: Leaf disc assay, dry inoculum (settling tower), decrease in disease severity / hyphal growth (Example 2)
Conditions: decrease in disease severity (hyphal growth) relative to untreated control, value ± SE; for % decrease =/− SE TP1: time point 1 (untreated control hyphal growth ≥50%); for % decrease =/− SE TP2: time point 2

| Molecule | % decrease =/− SE TP1 | % decrease =/− SE TP2 |
| --- | --- | --- |
| GS3620 (nucleic acid) sense: AGUUGAAGUGCUGUAAAUGGUACAGUCAUGGAAAGAGUAGUUGGAUACGAGAUAUAGAAGGCUGUGAUGCCUUCAGUGCGAUAGAUAUAGCGGGCACAAUCACUCAGUGAUCUAUAAAUUUUGCGAGAGUUAUGCAUUUGCAUUCUUUGCUUUAUUACAUCAAAUGGGUUCAUUAAAGCAUCACUUGCAAUUGUUGCGCAUGCCCCACUUGUAACUAUGUAGCUUCAGUAAGUGCUCAAUAUCAAGGAUAAAUUGGCGAUGUAGUCAUAUAUGUCUGAUUCCUUAAUCAAAAUUCUUAAU antisense: AUUAAGAAUUUUGAUUAAGGAAUCAGACAUAUAUGACUACAUCGCCAAUUUAUCCUUGAUAUUGAGCACUUACUGAAGCUACAUAGUUACAAGUGGGGCAUGCGCAACAAUUGCAAGUGAUGCUUUAAUGAACCCAUUUGAUGUAAUAAAGCAAAGAAUGCAAAUGCAUAACUCUCGCAAAAUUUAUAGAUCACUGAGUGAUUGUGCCCGCUAUAUCUAUCGCACUGAAGGCAUCACAGCCUUCUAUAUCUCGUAUCCAACUACUCUUUCCAUGACUGUACCAUUUACAGCACUUCAACU | 6 ± 8% | 8 ± 7% |
| GS1813: dsRNA trigger SEQ ID NO 117; gene target hypothetical_protein_BC1G_11193 (nucleic acid) DNA: CAATACTTATAGACATAATGTATATTGATAATAATCTAGTGTTGCATATCATTGATGAAGCAACTAATTTTCAGGCGGCTAGGTGGCTCAATAATATCTCTGCCAAACATACATGGGATGCCATACGTGCTTGTTGGATTGATACTTACGTTGGGCCCCCAGACTGCATAATAACAGATGCTGGTAAAAACTTCGTTAGCAAGGAATTTAATCAAAATGCATCATCAATGGAAATTTCGGTGAAAAACGTTCCTGTTGAAGCGCATTGGTCAATAGGAAAAATAGAGCGCTATCACTCTTGCATTCGTCGAGCTTATAAAATTATATCAGAAGAACTAGCTGGAACCGGAATCGGCAAAGAGTTTATGCTCCAGATGGCGGTAAAAGCCATAAACGACACAGCCGGACCTAATGGCTTAGTCCCAACTCTTTTAGTTTTTGGAGCTTATCCAAGAATGTCAAATTTAGACCCTCCTATGCCATCCATAATTCAACGGGCTGCTGCAATCAAAAAGGCGATGCTAGAGATAAGTAAATTACGCGCAAAGCTAACCGTGAATAGTGCTCTAAACCATCGAAACGGACCGAATACGAATA | 11 ± 5% | 4 ± 5% |
| GS3622 (nucleic acid) sense: AUGAAGUGCAGGAUUUUUCUCUAUAAGUUUCUUACGUUGUAGCGCCGAAGCUUCUCUAAGUUUAAUCUCUGAUGGAGAUAAAACGUUAUAUAUAGGCGUACCAACAGCAAUUGUCCCCUCUUUAAGUAGAUAUAACUUUCGCUUAUCUUUGUCUCGGUCAGUGCGGAAGUUUGUCCCAGCUUCUGUAAGUUUUACAGCUUUUUCUCGAUUAACUGCUCUUGACACUUGAAGUACGCGACCUUCUAUUGUGUAUAAGCCAUUCUUAUCAGCAGUUUCAUCCUCUAAAAUAGAGUUUUUAGCUUUAACAGCGUUUGCACCACUUUUGAAGGUACGAGGUGCACCAUGGUAACAAGAGUCCGCAUCUUCUUGUCUAUAGAAGCAAACAAAGCCAGUGCCUUUA antisense: UAAAGGCACUGGCUUUGUUUGCUUCUAUAGACAAGAAGAUGCGGACUCUUGUUACCAUGGUGCACCUCGUACCUUCAAAAGUGGUGCAAACGCUGUUAAAGCUAAAAACUCUAUUUUAGAGGAUGAAACUGCUGAUAAGAAUGGCUUAUACACAAUAGAAGGUCGCGUACUUCAAGUGUCAAGAGCAGUUAAUCGAGAAAAAGCUGUAAAACUUACAGAAGCUGGGACAAACUUCCGCACUGACCGAGACAAAGAUAAGCGAAAGUUAUAUCUACUUAAAGAGGGGACAAUUGCUGUUGGUACGCCUAUAUAUAACGUUUUAUCUCCAUCAGAGAUUAAACUUAGAGAAGCUUCGGCGCUACAACGUAAGAAACUUAUAGAGAAAAAUCCUGCACUUCAU | 17 ± 4% |  |
| GS3617 (nucleic acid) sense: UCAUGGAAAGAGUAGUUGGAUACGAGAUAUAGAAGGCUGUGAUGCCUUCAGUGCGAUAGAUAUAGCGGGCACAAUCACUCAGUGAUCUAUAAAUUUUGCGAGAGUUAUGCAUUUGCAUUCUUUGCUUUAUUACAUCAAAUGGGUUCAUUAAAGCAUCACUUGCAAUUGUUGCGCAUGCCCCACUUGUAACUAUGUAGCUUCAGUAAGUGCUCAAUAUCAAGGAUAAAUUGGCGAUGUAGUCAUAUAUGUC antisense: GACAUAUAUGACUACAUCGCCAAUUUAUCCUUGAUAUUGAGCACUUACUGAAGCUACAUAGUUACAAGUGGGGCAUGCGCAACAAUUGCAAGUGAUGCUUUAAUGAACCCAUUUGAUGUAAUAAAGCAAAGAAUGCAAAUGCAUAACUCUCGCAAAAUUUAUAGAUCACUGAGUGAUUGUGCCCGCUAUAUCUAUCGCACUGAAGGCAUCACAGCCUUCUAUAUCUCGUAUCCAACUACUCUUUCCAUGA | 22 ± 6% | 14 ± 6% |
| GS3623 (nucleic acid) sense: AGUUUCUUACGUUGUAGCGCCGAAGCUUCUCUAAGUUUAAUCUCUGAUGGAGAUAAAACGUUAUAUAUAGGCGUACCAACAGCAAUUGUCCCCUCUUUAAGUAGAUAUAACUUUCGCUUAUCUUUGUCUCGGUCAGUGCGGAAGUUUGUCCCAGCUUCUGUAAGUUUUACAGCUUUUUCUCGAUUAACUGCUCUUGACACUUGAAGUACGCGACCUUCUAUUGUGUAUAAGCCAUUCUUAUCAGCAGUUUCAUCCUCUAAAAUAGAGUUUUUAGCUUUAACAGCGUUUGCACCACUUUUGAAGGUACGAGGUGCACCAUGGUAACAAGAGUCCGCAUCUUCUUGUCUAUA antisense: UAUAGACAAGAAGAUGCGGACUCUUGUUACCAUGGUGCACCUCGUACCUUCAAAAGUGGUGCAAACGCUGUUAAAGCUAAAAACUCUAUUUUAGAGGAUGAAACUGCUGAUAAGAAUGGCUUAUACACAAUAGAAGGUCGCGUACUUCAAGUGUCAAGAGCAGUUAAUCGAGAAAAAGCUGUAAAACUUACAGAAGCUGGGACAAACUUCCGCACUGACCGAGACAAAGAUAAGCGAAAGUUAUAUCUACUUAAAGAGGGGACAAUUGCUGUUGGUACGCCUAUAUAUAACGUUUUAUCUCCAUCAGAGAUUAAACUUAGAGAAGCUUCGGCGCUACAACGUAAGAAACU | 20 ± 3% |  |
| GS3616 (nucleic acid) sense: UUAAAAGUUGCGGUUUAACUUAAGCUGUAGCCGCAACAGUUUCAGCUGUCCCAGCUAGUCCUUCUGAUUGAAGUUUAUCAUUAGUAAUCCCUUUAGCGAUGGCGCCAUUAGUACCUUCGGUUGAGUUGCCAACAUUAGAUACUUCGCCAGCACCAUCAGAUACAUGUGUAGUUAAUUCUUCAGAGGUCUUGUCCGGACUAUCUAUUGCGAUCUUUACUGCAAUCUCACGACCUUGAACUUCUUUUCCAUUCAUUUCGGCAACAGCCCUAUUUUGAAGUUCAUUAGAUGCUAAGUUCACAAAGCCAAACCCACGGCCUUUCCGAGGUUCGUUGCGGGCCUGAAGCUUUUUAACCAUGAAUUUUGGAAUAGGACGCAGAGCAAUUUUGGCAGAUACUGGUUC antisense: GAACCAGUAUCUGCCAAAAUUGCUCUGCGUCCUAUUCCAAAAUUCAUGGUUAAAAAGCUUCAGGCCCGCAACGAACCUCGGAAAGGCCGUGGGUUUGGCUUUGUGAACUUAGCAUCUAAUGAACUUCAAAAUAGGGCUGUUGCCGAAAUGAAUGGAAAAGAAGUUCAAGGUCGUGAGAUUGCAGUAAAGAUCGCAAUAGAUAGUCCGGACAAGACCUCUGAAGAAUUAACUACACAUGUAUCUGAUGGUGCUGGCGAAGUAUCUAAUGUUGGCAACUCAACCGAAGGUACUAAUGGCGCCAUCGCUAAAGGGAUUACUAAUGAUAAACUUCAAUCAGAAGGACUAGCUGGGACAGCUGAAACUGUUGCGGCUACAGCUUAAGUUAAACCGCAACUUUUAA | 14 ± 4% |  |
| GS3619 (nucleic acid) sense: UGUAGAUACAGAUUCGUAUGCGAGAAGUUGAAGUGCUGUAAAUGGUACAGUCAUGGAAAGAGUAGUUGGAUACGAGAUAUAGAAGGCUGUGAUGCCUUCAGUGCGAUAGAUAUAGCGGGCACAAUCACUCAGUGAUCUAUAAAUUUUGCGAGAGUUAUGCAUUUGCAUUCUUUGCUUUAUUACAUCAAAUGGGUUCAUUAAAGCAUCACUUGCAAUUGUUGCGCAUGCCCCACUUGUAACUAUGUAGCUUCAGUAAGUGCUCAAUAUCAAGGAUAAAUUGGCGAUGUAGUCAUAUAUGUCUGAUUCCUUAAUCAAAAUUCUUAAUACAGACCUGCUGCAAUAGGAUGAUG antisense: CAUCAUCCUAUUGCAGCAGGUCUGUAUUAAGAAUUUUGAUUAAGGAAUCAGACAUAUAUGACUACAUCGCCAAUUUAUCCUUGAUAUUGAGCACUUACUGAAGCUACAUAGUUACAAGUGGGGCAUGCGCAACAAUUGCAAGUGAUGCUUUAAUGAACCCAUUUGAUGUAAUAAAGCAAAGAAUGCAAAUGCAUAACUCUCGCAAAAUUUAUAGAUCACUGAGUGAUUGUGCCCGCUAUAUCUAUCGCACUGAAGGCAUCACAGCCUUCUAUAUCUCGUAUCCAACUACUCUUUCCAUGACUGUACCAUUUACAGCACUUCAACUUCUCGCAUACGAAUCUGUAUCUACA | 9 ± 2% |  |
| GS3618 (nucleic acid) sense: CGUAAGCCUUUGAUGGGUUCAGAAAUGUAGAUACAGAUUCGUAUGCGAGAAGUUGAAGUGCUGUAAAUGGUACAGUCAUGGAAAGAGUAGUUGGAUACGAGAUAUAGAAGGCUGUGAUGCCUUCAGUGCGAUAGAUAUAGCGGGCACAAUCACUCAGUGAUCUAUAAAUUUUGCGAGAGUUAUGCAUUUGCAUUCUUUGCUUUAUUACAUCAAAUGGGUUCAUUAAAGCAUCACUUGCAAUUGUUGCGCAUGCCCCACUUGUAACUAUGUAGCUUCAGUAAGUGCUCAAUAUCAAGGAUAAAUUGGCGAUGUAGUCAUAUAUGUCUGAUUCCUUAAUCAAAAUUCUUAAUACAGACCUGCUGCAAUAGGAUGAUGAGCUCCUGUUUGAUUACCUCCCAUG antisense: CAUGGGAGGUAAUCAAACAGGAGCUCAUCAUCCUAUUGCAGCAGGUCUGUAUUAAGAAUUUUGAUUAAGGAAUCAGACAUAUAUGACUACAUCGCCAAUUUAUCCUUGAUAUUGAGCACUUACUGAAGCUACAUAGUUACAAGUGGGGCAUGCGCAACAAUUGCAAGUGAUGCUUUAAUGAACCCAUUUGAUGUAAUAAAGCAAAGAAUGCAAAUGCAUAACUCUCGCAAAAUUUAUAGAUCACUGAGUGAUUGUGCCCGCUAUAUCUAUCGCACUGAAGGCAUCACAGCCUUCUAUAUCUCGUAUCCAACUACUCUUUCCAUGACUGUACCAUUUACAGCACUUCAACUUCUCGCAUACGAAUCUGUAUCUACAUUUCUGAACCCAUCAAAGGCUUACG | 27 ± 4% |  |
